# Results taken from the supplement of paper PMC7125110.
# ± gives the standard error. This sample holds only a part of the variants without activity.
# B1: glmS ribozyme (parent)
# chain: AUAAAAGCGCCAGAACUACAGAAAUGUAGUUGACGAGGAGGAGGUUUAUCGAAUUUUCGGCGGAUGCCUCCAAA
# Variants of: B1
# Experiment: self-cleavage kobs at 2500 uM GlcN6P; higher = faster cleavage; RNA array
# Conditions: with glucosamine-6-phosphate
# Method in brief: (§1)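 Barcoded ribozyme variants, transcribed in situ by E. coli RNA polymerase on sequenced MiSeq chips, were followed via a hybridised Cy3 probe at 37 °C. Glucosamine-6-phosphate ranged from 40 μM to 10 mM in HEPES/KCl/Mg(OAc)2 buffer. kobs came from decay fits to per-tile medians, and kcat and KM from weighted Michaelis–Menten fits.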
row,Variant,self-cleavage kobs at 2500 uM GlcN6P
1,AUAAAAGCGCCAGAACUACAGAAAUGUAGUUUACGAGGAGGAGGUUUAUCGAAUAUUCGGCGGAUGCCUUCAAA,0.000404 ± 8e-05 s⁻¹
2,AUAAAAGCGCCAGAACUACAGAAAUGUAGUUGUCGAGGAGGAGGUUUUUCGAAUUUUCAGUGGAUGCCUCUAAA,< 1e-05 s⁻¹
3,AUAAAAGCGCCAGAACUACAGAAAUGUAGUUGCCUAGGAGGGGGUUUGUCGAAUUUUCGGCGGAUGCCUCCAAA,< 1e-05 s⁻¹
4,AUAAAAGCGCCAGAACUACAGAAAUGUAGUUGGCGAGGAGGAGGGUGAUCGAAUUUUCGGCGGAUGCCUCCAAA,< 1e-05 s⁻¹
5,AUAAAAGCGCCAGAACUACAGAAAUGUAGUUGCCGAGGAGGAGGUUUAUCGAGUGUUCGGCGGAUGCCUCCAAA,0.000103 ± 2.8e-05 s⁻¹
6,AUAAAAGCGCCAGAACUACAGAAAUGUAGUUGAAUAGGAGGAGGUUUAUCGAAUUUUCUGCGGAUGCCUCCAAA,< 1e-05 s⁻¹
7,AUAAAAGCGCCAGAACUACAGAAAUGUAGUUGAUGAGGAGGAGGUUUAUCGAAUUUUCGGCGGAUGGGUCCAAA,0.000147 ± 3.9e-05 s⁻¹
8,AUAAAAGCGCCAGAACUACAGAAAUGUAGUUGAUGAGGAGGAGUUUUACCGAAUUUUCAGAGGAUGCCUCCAAA,< 1e-05 s⁻¹
9,AUAAAAGCGCCAGAACUACAGAAAUGUAGUUGACAUGGAGGAGAUUUAUCGGAUUUUCGGGGGAUGACUCCAAA,< 1e-05 s⁻¹
10,AUAAAAGCGCCAGAACUACAGAAAUGUAGUUGAAGAGGAGAAGGUUUAUGGAAUUUUCGGCGGAUGCCUCCAAA,< 1e-05 s⁻¹
11,AUAAAAGCGCCAGAACUACAGAAAUGUAGUUGAGGACGAGGAGGUUUAUCGAAUUUUCGUCGCAUGCCUCCAAA,< 1e-05 s⁻¹
12,AUAAAAGCGCCAGAACUACAGAAAUGUAGUUGCCGAAGACGCGGUUUAUCGAAUUUUCGGCGGAUGCCUCCAAA,< 1e-05 s⁻¹
13,AUAAAAGCGCCAGAACUACAGAAAUGUAGUUGAUGAGGAGGAGGUUUAUGGAAUUUUCGGCGGAUGCAACCAAA,0.000141 ± 4.9e-05 s⁻¹
14,AUAAAAGCGCCAGAACUACAGAAAUGUAGUUGAUGAGGAGGAGGUUUAUCGUGUUUUCGGCGGUUGCCUUCAAA,< 1e-05 s⁻¹
15,AUAAAAGCGCCAGAACUACAGAAAUGUAGUUGUCGAGGAGGAGGUUUAUCGAAUCUUCGCCGGAUGCCUCCAAA,< 1e-05 s⁻¹
16,AUAAAAGCGCCAGAACUACAGAAAUGUAGUUGCCGAGGAGGAGGUUUAUCGAACUUUCGGCGGAUGGGUUCAAA,< 1e-05 s⁻¹
17,AUAAAAGCGCCAGAACUACAGAAAUGUAGUUGAAGAGGAGGAGGUUUCUCGAAUUUUCGGCGGUUGCCUCCAAA,< 1e-05 s⁻¹
18,AUAAAAGCGCCAGAACUACAGAAAUGUAGUUGAGGAGGAGGACGUGUAUCGAAUUUUCGGCGGAUGCCGCCAAA,< 1e-05 s⁻¹
19,AUAAAAGCGCCAGAACUACAGAAAUGUAGUUGGCGAGGAGGAGGUUUAUCGACUUUUCGGCGGAAGUCUCCAAA,< 1e-05 s⁻¹
20,AUAAAAGCGCCAGAACUACAGAAAUGUAGUUGAUAAGUAGGAAGUUUAUCGAAUUUUCGGCGGAUGCCUCCAAA,< 1e-05 s⁻¹
21,AUAAAAGCGCCAGAACUACAGAAAUGUAGUUGAUGACGAGGUGGUUUAUCGAAUUUUCGGCGGAUGCCUCCAAA,< 1e-05 s⁻¹
22,AUAAAAGCGCCAGAACUACAGAAAUGUAGUUGAAGAGGAGGAGGUUUUUUGAAUUUUCGGCGGAUGCCUCCAAA,< 1e-05 s⁻¹
23,AUAAAAGCGCCAGAACUACAGAAAUGUAGUUGCCGAGCAGGAGGUUUGUCGAAUUCUCGGCGGAUGCCUCCAAA,< 1e-05 s⁻¹
24,AUAAAAGCGCCAGAACUACAGAAAUGUAGUUGUCGACCAGGAAGUUUAUCAAAUUUUCGGCGGAUGCCUCCAAA,< 1e-05 s⁻¹

row,Variant,self-cleavage kobs at 2500 uM GlcN6P
1,AUAAAAGCGCCAGAACUACAGAAAUGUAGUUGAAGAGGAGGAAGUUUAUCGAAGUUUCGGCGGAUGCCUCCAAA,< 1e-05 s⁻¹
2,AUAAAAGCGCCAGAACUACAGAAAUGUAGUUGUCCAGGAGGAGGUUUAUCGAAUUUUCGGCGGAUGGCUCCAAA,< 1e-05 s⁻¹
3,AUAAAAGCGCCAGAACUACAGAAAUGUAGUUGCCGAGGAGGAGGUUUAUGGAAUUUUCGGCGGAUGCCUCCAAA,0.000218 ± 9.9e-05 s⁻¹
4,AUAAAAGCGCCAGAACUACAGAAAUGUAGUUGAGGAGGAGGAGGUAAAUCGAAUUUUCGGCGGACGCGUCCAAA,< 1e-05 s⁻¹
5,AUAAAAGCGCCAGAACUACAGAAAUGUAGUUGUCCAGGAGGAGGUUUAUCGAAUUUUCGGCAGAUGCCUCCAAA,< 1e-05 s⁻¹
6,AUAAAAGCGCCAGAACUACAGAAAUGUAGUUGGCGAGGAGGUGGUUAAUCGAGUUUUCGGCGGAUGCCUCCAAA,< 1e-05 s⁻¹
7,AUAAAAGCGCCAGAACUACAGAAAUGUAGUUGGCGAGGAGGAGGUUUAUCGACUUUUAGGCGGAUGCCUCCAAA,< 1e-05 s⁻¹
8,AUAAAAGCGCCAGAACUACAGAAAUGUAGUUGAUGCGGUGGAGGUUUAUCGAAUUUUCGGCGGAUGCCUCCAAA,< 1e-05 s⁻¹
9,AUAAAAGCGCCAGAACUACAGAAAUGUAGUUGCCGAGCAGGAGGUUUUUCGAAUUUUCGGCGGAUGCCUCCAAA,< 1e-05 s⁻¹
10,AUAAAAGCGCCAGAACUACAGAAAUGUAGUUGUCGAGGAGGAGGUUUGUCGAAUGUUCGGCGGAUGCCUCCAAA,< 1e-05 s⁻¹
11,AUAAAAGCGCCAGAACUACAGAAAUGUAGUUGAAGAGGAGGAGGUUUGUCGAAUUUCCGGCGGAUGCCUCCAAA,< 1e-05 s⁻¹
12,AUAAAAGCGCCAGAACUACAGAAAUGUAGUUGGCGAAGAGGAGGUUUAUCGAAUUUUCGGCCGAUGCCUCCAAA,< 1e-05 s⁻¹
13,AUAAAAGCGCCAGAACUACAGAAAUGUAGUUGAUUAGGAGGAGGUUUAUCGAAUUUUCGGCCGAUGCCUCCAAA,< 1e-05 s⁻¹
14,AUAAAAGCGCCAGAACUACAGAAAUGUAGUUGGCGAGGAGGAGGUUUAUCGAAUUUUCGGCGGAUGCCGCCAAA,5.67e-05 ± 1.7e-05 s⁻¹
15,AUAAAAGCGCCAGAACUACAGAAAUGUAGUUGGCGAAGAGGAGGUUUAUCGUAUUUUCGGCGGAUGCCUCCAAA,< 1e-05 s⁻¹
16,AUAAAAGCGCCAGAACUACAGAAAUGUAGUUGAGGAGAAGGAGGUUUAUCGAAUUUUCGGCGGAUGCCUGCAAA,5.16e-05 ± 2.4e-05 s⁻¹
17,AUAAAAGCGCCAGAACUACAGAAAUGUAGUUGCCGAGGAGGAGGUUUAUCGAAUUUUCGGCGAAUGCAUCCAAA,< 1e-05 s⁻¹
18,AUAAAAGCGCCAGAACUACAGAAAUGUAGUUGAGUAGGAGGAUGUUUAUCGAAUUUUCGGCGGAUGCCUCCAAA,< 1e-05 s⁻¹
19,AUAAAAGCGCCAGAACUACAGAAAUGUAGUUGAUGAGGAGGAGGUUUAUGGAAUUUUCGGCGGAUGACUCCAAA,8.66e-05 ± 2.1e-05 s⁻¹
20,AUAAAAGCGCCAGAACUACAGAAAUGUAGUUGAGGAGGAGGCGGUUUAUCGAAUUUUCGGCGCAGGCCUCCAAA,< 1e-05 s⁻¹
21,AUAAAAGCGCCAGAACUACAGAAAUGUAGUUGAAGAGGUGGAGGUUUAUAGAGUUUUCGGCGGAUGCUUCCAAA,< 1e-05 s⁻¹
22,AUAAAAGCGCCAGAACUACAGAAAUGUAGUUGAGGAGGAGGAGGUCUAUCGAAUUUUCGGCGGAUGCCUCCAAA,< 1e-05 s⁻¹
23,AUAAAAGCGCCAGAACUACAGAAAUGUAGUUGCCGAAGAGGAGGUUUAUCGAAUUUUCGCCGGAUGCCUCCAAA,< 1e-05 s⁻¹
24,AUAAAAGCGCCAGAACUACAGAAAUGUAGUUGAGGAGGAGUUGGUUUAUCGAAUUUUCGGCGGAUGCCUCCAAA,< 1e-05 s⁻¹

row,Variant,self-cleavage kobs at 2500 uM GlcN6P
1,AUAAAAGCGCCAGAACUACAGAAAUGUAGUUGAAGAGGAGGAAGUUUAUGGAACUUUCGGCGGAUGCCUCCAAA,< 1e-05 s⁻¹
2,AUAAAAGCGCCAGAACUACAGAAAUGUAGUUGUCGAGGAGGAAGUUUAUCGAAUUUCCGGCGGAUGCCUCCAAA,< 1e-05 s⁻¹
3,AUAAAAGCGCCAGAACUACAGAAAUGUAGUUGGCGAGGAGGAGGUUCAUCGAACUUUCGGCAGAUGCCUCCAAA,< 1e-05 s⁻¹
4,AUAAAAGCGCCAGAACUACAGAAAUGUAGUUGAUGAGGAGGAGGUUUAUCGAAUUUUUGACGGAUGCCUCCAAA,< 1e-05 s⁻¹
5,AUAAAAGCGCCAGAACUACAGAAAUGUAGUUGGCGAGGAGGAGGUUAAUCGAGUUUUCGGCGGAUGCCUUCAAA,< 1e-05 s⁻¹
6,AUAAAAGCGCCAGAACUACAGAAAUGUAGUUGCCGUAGAGGAGGUUCAUCGAAUUUUCGGCGGAUGCCUCCAAA,< 1e-05 s⁻¹
7,AUAAAAGCGCCAGAACUACAGAAAUGUAGUUGAAGAGGAGGAGCUUUAUCGAAUUUUCUGCGAAUGCCUCCAAA,< 1e-05 s⁻¹
8,AUAAAAGCGCCAGAACUACAGAAAUGUAGUUGACAAGGAGGAGGUUUAUCGUAAUUUCGGUGGAUGGCUCCAAA,< 1e-05 s⁻¹
9,AUAAAAGCGCCAGAACUACAGAAAUGUAGUUGAUGAGGAGGAGGUUCAUCGAAUUUUCGGUGGAUGCCUCCAAA,< 1e-05 s⁻¹
10,AUAAAAGCGCCAGAACUACAGAAAUGUAGUUGAUGAGGAGGAGGGUUAUCGAAUUUUCGGCGGAUGCCUACAAA,< 1e-05 s⁻¹
11,AUAAAAGCGCCAGAACUACAGAAAUGUAGUUGAUGAGGAGGAGGUUUAUCGAAUUUUCGGCGGAUGCUUCCAAA,< 1e-05 s⁻¹
12,AUAAAAGCGCCAGAACUACAGAAAUGUAGUUGACAAGGAGGUGAUUUAUCGAAUUUUCGGCGGAUGCCUCCAAA,< 1e-05 s⁻¹
13,AUAAAAGCGCCAGAACUACAGAAAUGUAGUUGCCGAGGAGCAGGUUUAUCGAAUUUUCGGCGGAUGCCGCCAAA,< 1e-05 s⁻¹
14,AUAAAAGCGCCAGAACUACAGAAAUGUAGUUGCCGAGGGUGAGGUUUAACGAAUUUUCGGCGGAUGCCUCCAAA,< 1e-05 s⁻¹
15,AUAAAAGCGCCAGAACUACAGAAAUGUAGUUGACAAGGAGGAGGUUUCUCAAAUUGUCGGCGGAUGCCUCCAAA,< 1e-05 s⁻¹
16,AUAAAAGCGCCAGAACUACAGAAAUGUAGUUGAUGAGUAGGUGGUUUAUCGAAUUUUCGGCGUAUGCCUCCAAA,< 1e-05 s⁻¹
17,AUAAAAGCGCCAGAACUACAGAAAUGUAGUUGACAAUGAGGAGGUUUAUCCAAUUUUCGGCGGAUGCCUCCAAA,< 1e-05 s⁻¹
18,AUAAAAGCGCCAGAACUACAGAAAUGUAGUUGAUGAGGAGGAGUUUUAACGAAUUUUCGGCGGAUGCCUCCAAA,< 1e-05 s⁻¹
19,AUAAAAGCGCCAGAACUACAGAAAUGUAGUUGAAGGGUAGGAGGUUUAUCGAAUUUUCGGCGGAUGCCGCCAAA,4.35e-05 ± 2e-05 s⁻¹
20,AUAAAAGCGCCAGAACUACAGAAAUGUAGUUGGCGCGGAGGAGCAUUAUUGAAUUUUCGGCGGAUGCCUCAAAA,< 1e-05 s⁻¹
21,AUAAAAGCGCCAGAACUACAGAAAUGUAGUUGAAGAGGUGGAGGUUUAUGGAAUUUUCGGCGGAUGGCUCCAAA,0.000353 ± 6.7e-05 s⁻¹
22,AUAAAAGCGCCAGAACUACAGAAAUGUAGUUGUCGAGGAGGAGGUUUAUCGAAUGUUGGGCGGAUGCCUCCAAA,< 1e-05 s⁻¹

# Variants of: B1
# Experiment: self-cleavage kobs at 10000 uM GlcN6P; higher = faster cleavage; RNA array
# Conditions: with glucosamine-6-phosphate
# Method in brief: as §1
row,Variant,self-cleavage kobs at 10000 uM GlcN6P
1,AUAAAAGCGCCAGAACUACAGAAAUGUAGUUGCCGAGGAGGAGGUUUAUCGAGUGUUCGGCGGAUGCCUCCAAA,0.000163 ± 2.9e-05 s⁻¹
2,AUAAAAGCGCCAGAACUACAGAAAUGUAGUUGAGGAGGAGGAGGUAAAUCGAAUUUUCGGCGGACGCGUCCAAA,< 1e-05 s⁻¹
3,AUAAAAGCGCCAGAACUACAGAAAUGUAGUUGCCGAGCAGGAGGUUUUUCGAAUUUUCGGCGGAUGCCUCCAAA,< 1e-05 s⁻¹
4,AUAAAAGCGCCAGAACUACAGAAAUGUAGUUGAUGAGGAGGAGGGUUAUCGAAUUUUCGGCGGAUGCCUACAAA,< 1e-05 s⁻¹
